Experimental data as given in article PMC4557304.

Assays:
Test in all cases: EMSA; with POLγB; 10 mM Mg2+, 3 mM dCTP, 0.3 mM ddGTP; EMSA: 15 µl, 10 fmol DNA, 450 fmol POLγA, 1.8 pmol POLγB where indicated; 20 mM Tris-HCl pH 7.5, 1 mM DTT, 0.1 mg/ml BSA, 10 mM MgCl2, 10% glycerol, 3 mM dCTP
POLγA G303R;POLγB = POLγA G303R;POLγB (human?;human?, UniProt P54098;Q9UHN1 26-1239;25-485, G303R|)
POLγA R232H;POLγB = POLγA R232H;POLγB (human?;human?, UniProt P54098;Q9UHN1 26-1239;25-485, R232H|)
POLγA R275Q;POLγB = POLγA R275Q;POLγB (human?;human?, UniProt P54098;Q9UHN1 26-1239;25-485, R275Q|)
Chain of POLγA R275Q;POLγB (P54098 26-1239 R275Q, chain 1 of 2): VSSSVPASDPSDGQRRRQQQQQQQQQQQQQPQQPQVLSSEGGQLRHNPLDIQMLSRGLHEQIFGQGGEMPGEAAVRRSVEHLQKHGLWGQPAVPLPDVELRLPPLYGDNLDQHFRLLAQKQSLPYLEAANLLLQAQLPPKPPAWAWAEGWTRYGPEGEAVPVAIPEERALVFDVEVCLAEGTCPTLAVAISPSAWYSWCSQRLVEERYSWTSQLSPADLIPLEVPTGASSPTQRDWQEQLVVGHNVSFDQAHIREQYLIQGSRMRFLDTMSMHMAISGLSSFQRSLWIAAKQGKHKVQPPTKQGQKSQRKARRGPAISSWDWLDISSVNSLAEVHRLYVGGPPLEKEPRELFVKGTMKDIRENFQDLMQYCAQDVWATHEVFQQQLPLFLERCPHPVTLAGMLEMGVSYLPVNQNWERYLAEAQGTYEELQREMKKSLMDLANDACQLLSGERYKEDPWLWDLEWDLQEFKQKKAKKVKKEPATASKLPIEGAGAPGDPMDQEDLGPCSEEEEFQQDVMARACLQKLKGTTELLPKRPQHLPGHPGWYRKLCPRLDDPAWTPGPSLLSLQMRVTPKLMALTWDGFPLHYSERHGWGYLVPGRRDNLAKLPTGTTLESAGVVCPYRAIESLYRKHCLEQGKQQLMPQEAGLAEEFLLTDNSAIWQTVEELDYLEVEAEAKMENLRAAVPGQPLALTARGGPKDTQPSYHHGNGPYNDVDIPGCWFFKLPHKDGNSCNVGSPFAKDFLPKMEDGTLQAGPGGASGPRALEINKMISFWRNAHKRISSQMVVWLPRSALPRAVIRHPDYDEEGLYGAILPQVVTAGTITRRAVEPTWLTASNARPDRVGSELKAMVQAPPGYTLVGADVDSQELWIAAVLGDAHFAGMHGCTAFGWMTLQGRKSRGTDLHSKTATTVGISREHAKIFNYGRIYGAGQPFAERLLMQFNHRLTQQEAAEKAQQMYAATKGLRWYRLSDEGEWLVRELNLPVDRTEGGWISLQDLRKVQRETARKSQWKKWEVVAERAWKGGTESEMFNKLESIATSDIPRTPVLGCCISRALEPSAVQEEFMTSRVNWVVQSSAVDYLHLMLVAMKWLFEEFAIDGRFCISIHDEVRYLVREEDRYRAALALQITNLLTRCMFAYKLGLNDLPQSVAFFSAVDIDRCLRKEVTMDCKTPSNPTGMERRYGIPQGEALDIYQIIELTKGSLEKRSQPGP
Chain of POLγA R275Q;POLγB (Q9UHN1 25-485, chain 2 of 2): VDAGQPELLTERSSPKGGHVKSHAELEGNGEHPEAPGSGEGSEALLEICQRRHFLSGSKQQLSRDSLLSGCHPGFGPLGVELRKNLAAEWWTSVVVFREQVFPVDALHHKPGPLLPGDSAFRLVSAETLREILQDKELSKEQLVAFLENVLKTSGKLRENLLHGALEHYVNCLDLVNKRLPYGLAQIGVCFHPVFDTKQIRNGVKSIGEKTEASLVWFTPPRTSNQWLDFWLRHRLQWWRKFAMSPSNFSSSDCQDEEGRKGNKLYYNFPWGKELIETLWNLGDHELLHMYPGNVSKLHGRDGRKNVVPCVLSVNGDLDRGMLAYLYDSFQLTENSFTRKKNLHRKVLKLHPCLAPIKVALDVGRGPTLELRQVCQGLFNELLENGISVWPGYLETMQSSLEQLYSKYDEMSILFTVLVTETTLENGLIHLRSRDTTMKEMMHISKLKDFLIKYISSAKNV

POLγA L304R;POLγB = POLγA L304R;POLγB (human?;human?, UniProt P54098;Q9UHN1 26-1239;25-485, L304R|)
Chain of POLγA L304R;POLγB (P54098 26-1239 L304R, chain 1 of 2): as the sequence (P54098 26-1239 R275Q, chain 1 of 2) above, with Q250R, L279R counted along it
Chain of POLγA L304R;POLγB (Q9UHN1 25-485, chain 2 of 2): as the sequence (Q9UHN1 25-485, chain 2 of 2) above

POLγA S305R;POLγB = POLγA S305R;POLγB (human?;human?, UniProt P54098;Q9UHN1 26-1239;25-485, S305R|)
Chain of POLγA S305R;POLγB (P54098 26-1239 S305R, chain 1 of 2): as the sequence (P54098 26-1239 R275Q, chain 1 of 2) above, with Q250R, S280R counted along it
Chain of POLγA S305R;POLγB (Q9UHN1 25-485, chain 2 of 2): as the sequence (Q9UHN1 25-485, chain 2 of 2) above

POLγA G268A;POLγB = POLγA G268A;POLγB (human?;human?, UniProt P54098;Q9UHN1 26-1239;25-485, G268A|)
Chain of POLγA G268A;POLγB (P54098 26-1239 G268A, chain 1 of 2): as the sequence (P54098 26-1239 R275Q, chain 1 of 2) above, with G243A, Q250R counted along it
Chain of POLγA G268A;POLγB (Q9UHN1 25-485, chain 2 of 2): as the sequence (Q9UHN1 25-485, chain 2 of 2) above

POLγA H277L;POLγB = POLγA H277L;POLγB (human?;human?, UniProt P54098;Q9UHN1 26-1239;25-485, H277L|)
Chain of POLγA H277L;POLγB (P54098 26-1239 H277L, chain 1 of 2): as the sequence (P54098 26-1239 R275Q, chain 1 of 2) above, with Q250R, H252L counted along it
Chain of POLγA H277L;POLγB (Q9UHN1 25-485, chain 2 of 2): as the sequence (Q9UHN1 25-485, chain 2 of 2) above

Measured: binding result

Chain of POLγA R232H;POLγB (P54098 26-1239 R232H, chain 1 of 2): as the sequence (P54098 26-1239 R275Q, chain 1 of 2) above, with R207H, Q250R counted along it
Chain of POLγA R232H;POLγB (Q9UHN1 25-485, chain 2 of 2): as the sequence (Q9UHN1 25-485, chain 2 of 2) above
Chain of POLγA G303R;POLγB (P54098 26-1239 G303R, chain 1 of 2): as the sequence (P54098 26-1239 R275Q, chain 1 of 2) above, with Q250R, G278R counted along it
Chain of POLγA G303R;POLγB (Q9UHN1 25-485, chain 2 of 2): as the sequence (Q9UHN1 25-485, chain 2 of 2) above

B1: primed DNA template (20/35-mer) (dsDNA)
DNA 1: CGGTCGAGTCTAGAGGAGCC
DNA 2: GACTACGTCTATCCGGGCTCCTCTAGACTCGACCG
binds: all assays above
